According to publication PMC8910226:
pKd: −log10 of the molar value.

Molecular target: F-actin (phalloidin-stabilized) (UniProt P68139)
Test: co-sedimentation; S1 fixed at 1.5 μM, phalloidin-stabilized F-actin 0-4 μM; rigor conditions (no nucleotide); 100 mM NaCl, 200 mM sodium phosphate pH 7, 5 mM MgCl2, 4 mM DTT; 15 min at 4 °C, 70,000 RPM 60 min 4 °C; SDS-PAGE densitometry of pellet, hyperbolic fit; Kd = F-actin concentration at half Bmax; N = 3

Row | Substance | pKd
1 | R369H myosin subfragment-1 (S1) motor domain, Drosophila indirect flight muscle myosin (domain or fragment) | 5.96
2 | control myosin subfragment-1 (S1) motor domain, Drosophila indirect flight muscle myosin (domain or fragment) | 5.90
